Source: patent US20220213225A1 (INVENRA, published 2022)

B1: bivalent bispecific B-Body “BC1” (PD1 x Antigen A) (bispecific antibody)
chain 1: not shown
chain 2: EVQLVESGGGLVQPGGSLRLSCAASGFTFSDYDIHWVRQAPGKGLEWVGDITPYDGTTNYADSVKGRFTISADTSKNTAYLQMNSLRAEDTAVYYCARLVGEIATGFDYWGQGTLVTVSSASPREPQVYTDPPSRDELTKNQVSLTCLVKGFYPSDIAVEWESNGQPENNYKTTPPVLDSDGSFFLYSKLTVDKSRWQQGNVFSCSVMHEALHNHYTQKSLSLSGEC
chain 3: not shown
chain 4: QVQLVESGGGVVQPGRSLRLDCKASGITFSNSGMHWVRQAPGKGLEWVAVIWYDGSKRYYADSVKGRFTISRDNSKNTLFLQMNSLRAEDTAVYYCATNDDYWGQGTLVTVSSASTKGPSVFPLAPSSKSTSGGTAALGCLVKDYFPEPVTVSWNSGALTSGVHTFPAVLQSSGLYSLSSVVTVPSSSLGTQTYICNVNHKPSNTKVDKKVEPPKSC
notes: Chains 1+2 form the Antigen A site, chains 3+4 the PD1 site (nivolumab variable domains)
B2: BC1 1×1 B-Body SNIPER 19×8 binding molecule (CTLA4-19 x CD25-8) (bispecific antibody)
chain 1: not shown
chain 2: EVQLVESGGGLVQPGGSLRLSCAASGFTFSGYWIHWVRQAPGKGLEWVAAITSRDSYTYYADSVKGRFTISADTSKNTAYLQMNSLRAEDTAVYYCARGSYLGSAFDYWGQGTLVTVSSASPREPQVYTDPPSRDELTKNQVSLTCLVKGFYPSDIAVEWESNGQPENNYKTTPPVLDSDGSFFLYSKLTVDKSRWQQGNVFSCSVMHEALHNHYTQKSLSLSGEC
chain 3: SDIQMTQSPSSLSASVGDRVTITCRASQSVSSAVAWYQQKPGKAPKLLIYSASSLYSGVPSRFSGSRSGTDFTLTISSLQPEDFATYYCQQYSSQPATFGQGTKVEIKRTVAAPSVFIFPPSDEQLKSGTASVVCLLNNFYPREAKVQWKVDNALQSGNSQESVTEQDSKDSTYSLSSTLTLSKADYEKHKVYACEVTHQGLSSPVTKSFNRGECDKTHTCPPCPAPELLGGPSVFLFPPKPKDTLMISRTPEVTCVVVDVSHEDPEVKFNWYVDGVEVHNAKTKPREEQYNSTYRVVSVLTVLHQDWLNGKEYKCKVSNKALPAPIEKTISKAKGQPREPQVCTLPPSREEMTKNQVSLSCAVKGFYPSDIAVEWESNGQPENNYKTTPPVLDSDGSFFLVSKLTVDKSRWQQGNVFSCSVMHEALHNHYTQKSLSLSPGK
chain 4: EVQLVESGGGLVQPGGSLRLSCAASGFTFSSYYIHWVRQAPGKGLEWVAKIQPKGGYTYYADSVKGRFTISADTSKNTAYLQMNSLRAEDTAVYYCARSYYYRPHAFDYWGQGTLVTVSSASTKGPSVFPLAPSSKSTSGGTAALGCLVKDYFPEPVTVSWNSGALTSGVHTFPAVLQSSGLYSLSSVVTVPSSSLGTQTYICNVNHKPSNTKVDKKVEPPKSC

Columns and labels:
[1] = molecular target: T1, CTLA4 (antigen immobilised on the biosensor) (human, UniProt P16410 36-161, biotinylated in Examples 30 and 35); assay: Octet biolayer interferometry; antigen immobilised, B-Body as analyte
T1 construct: also called hCTLA4; biotinylated human CTLA4

[2] = molecular target: T1, CTLA4 (antigen immobilised on the …); assay: BLI steady state analysis, biotinylated CTLA4 on streptavidin sensor, two-fold dilutions of the binding molecule from 2 µM to 31.25 nM; monovalent

T1 sequence (P16410 36-161 limits assumed): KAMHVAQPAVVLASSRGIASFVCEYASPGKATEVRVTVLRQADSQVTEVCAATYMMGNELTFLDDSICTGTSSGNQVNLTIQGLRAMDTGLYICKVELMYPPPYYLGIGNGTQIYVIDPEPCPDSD

Binder | binding result [1] | Kd [2] [nM]
B1 | no binding (tested: not given on the sheet) | 
B2 |  | 19
